In patent publication US20220267475A1 (published 2022):

T1: TIGIT antigen expressed on CHO-K1 cells (UniProt Q495A1 22-244)
T1 chain: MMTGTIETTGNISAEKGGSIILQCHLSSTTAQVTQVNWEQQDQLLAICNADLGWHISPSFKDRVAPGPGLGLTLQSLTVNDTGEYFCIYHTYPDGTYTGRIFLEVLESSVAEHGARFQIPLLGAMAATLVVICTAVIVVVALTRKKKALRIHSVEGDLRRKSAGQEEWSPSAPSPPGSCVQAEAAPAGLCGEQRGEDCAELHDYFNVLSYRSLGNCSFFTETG


Columns and labels:
[1] = molecular target: T1, TIGIT antigen expressed on CHO-K1 cells; test: flow cytometry
[2] = molecular target: CD47 antigen expressed on CHO-K1 cells (UniProt Q08722 19-323); test: flow
CD47 antigen expressed on CHO-K1 cells, sequence (Q08722 19-323): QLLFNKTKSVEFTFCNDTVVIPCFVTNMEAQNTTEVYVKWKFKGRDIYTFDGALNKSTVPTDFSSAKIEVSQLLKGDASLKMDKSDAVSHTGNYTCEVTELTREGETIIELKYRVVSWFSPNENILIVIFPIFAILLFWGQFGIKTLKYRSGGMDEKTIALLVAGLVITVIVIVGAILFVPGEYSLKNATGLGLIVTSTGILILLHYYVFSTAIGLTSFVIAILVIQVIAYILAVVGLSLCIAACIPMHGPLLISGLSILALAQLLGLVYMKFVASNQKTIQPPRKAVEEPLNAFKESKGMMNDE

Row | Binder | EC50 [1] | EC50 [2]
1 | TIGIT-G9-HN (bispecific antibody) heavy: not shown light: EIVLTQSPATLSLSPGERATLSCRASENVGTYISWYQQKPGQAPRLLIYGASNRYTGIPARFSGSGSGTDFTLTISSLEPEDFAVYYCGESYGHLYTFGGGTKVEIKRTVAAPSVFIFPPSDEQLKSGTASVVCLLNNFYPREAKVQWKVDNALQSGNSQESVTEQDSKDSTYSLSSTLTLSKADYEKHKVYACEVTHQGLSSPVTKSFNRGEC | 0.168 nM | 0.852 nM
2 | TIGIT-E-HN (bispecific antibody) heavy: not shown light: EIVLTQSPATLSLSPGERATLSCRASENVGTYISWYQQKPGQAPRLLIYGASNRYTGIPARFSGSGSGTDFTLTISSLEPEDFAVYYCGESYGHLYTFGGGTKVEIKRTVAAPSVFIFPPSDEQLKSGTASVVCLLNNFYPREAKVQWKVDNALQSGNSQESVTEQDSKDSTYSLSSTLTLSKADYEKHKVYACEVTHQGLSSPVTKSFNRGEC | 0.132 nM | 0.65 nM
3 | TIGIT-E-HC (bispecific antibody) heavy: not shown light: EIVLTQSPATLSLSPGERATLSCRASENVGTYISWYQQKPGQAPRLLIYGASNRYTGIPARFSGSGSGTDFTLTISSLEPEDFAVYYCGESYGHLYTFGGGTKVEIKRTVAAPSVFIFPPSDEQLKSGTASVVCLLNNFYPREAKVQWKVDNALQSGNSQESVTEQDSKDSTYSLSSTLTLSKADYEKHKVYACEVTHQGLSSPVTKSFNRGEC | 0.52 nM | –
4 | TIGIT-G9-HC (bispecific antibody) heavy: not shown light: EIVLTQSPATLSLSPGERATLSCRASENVGTYISWYQQKPGQAPRLLIYGASNRYTGIPARFSGSGSGTDFTLTISSLEPEDFAVYYCGESYGHLYTFGGGTKVEIKRTVAAPSVFIFPPSDEQLKSGTASVVCLLNNFYPREAKVQWKVDNALQSGNSQESVTEQDSKDSTYSLSSTLTLSKADYEKHKVYACEVTHQGLSSPVTKSFNRGEC | 0.429 nM | 0.686 nM
5 | TIGIT-G9-LN (bispecific antibody) heavy: not shown light: EVQLVESGGGLVQPGGSLRLSCAASGYKYGVYSMGWFRQAPGKGLEGVSAICSGGRTTYSDSVKGRFTISRDNSNQILYLQMNSLRAEDTAVYYCAARPLWTGDCDLSSSWYKTWGQGTLVTVSSGGGGSGGGSEIVLTQSPATLSLSPGERATLSCRASENVGTYISWYQQKPGQAPRLLIYGASNRYTGIPARFSGSGSGTDFTLTISSLEPEDFAVYYCGESYGHLYTFGGGTKVEIKRTVAAPSVFIFPPSDEQLKSGTASVVCLLNNFYPREAKVQWKVDNALQSGNSQESVTEQDSKDSTYSLSSTLTLSKADYEKHKVYACEVTHQGLSSPVTKSFNRGEC | 0.155 nM | –
6 | TIGIT-E-LC (bispecific antibody) heavy: not shown light: EIVLTQSPATLSLSPGERATLSCRASENVGTYISWYQQKPGQAPRLLIYGASNRYTGIPARFSGSGSGTDFTLTISSLEPEDFAVYYCGESYGHLYTFGGGTKVEIKRTVAAPSVFIFPPSDEQLKSGTASVVCLLNNFYPREAKVQWKVDNALQSGNSQESVTEQDSKDSTYSLSSTLTLSKADYEKHKVYACEVTHQGLSSPVTKSFNRGECEPKSSDKTHTSPPSPEVQLVESGGGLVQPGGSLRLSCAASGYKYGVYSMGWFRQAPGKGLEGVSAICSGGRTTYSDSVKGRFTISRDNSNQILYLQMNSLRAEDTAVYYCAARPLWTGDCDLSSSWYKTWGQGTLVTVSS | 0.334 nM | –
7 | TIGIT-E-LN (bispecific antibody) heavy: not shown light: EVQLVESGGGLVQPGGSLRLSCAASGYKYGVYSMGWFRQAPGKGLEGVSAICSGGRTTYSDSVKGRFTISRDNSNQILYLQMNSLRAEDTAVYYCAARPLWTGDCDLSSSWYKTWGQGTLVTVSSEPKSSDKTHTSPPSPEIVLTQSPATLSLSPGERATLSCRASENVGTYISWYQQKPGQAPRLLIYGASNRYTGIPARFSGSGSGTDFTLTISSLEPEDFAVYYCGESYGHLYTFGGGTKVEIKRTVAAPSVFIFPPSDEQLKSGTASVVCLLNNFYPREAKVQWKVDNALQSGNSQESVTEQDSKDSTYSLSSTLTLSKADYEKHKVYACEVTHQGLSSPVTKSFNRGEC | 0.0757 nM | –
8 | anti-CD47 monoclonal antibody (antibody, V domains shown) VH: EVQLVQSGAEVKKPGSSVKVSCKASGYSFTHHWIHWVRQAPGQGLEWMGMIDASDSETRLSQKFKDRVTITADKSTSTAYMELSSLRSEDTAVYYCARLGRYYFDYWGQGTTVTVSS VL: EIVLTQSPATLSLSPGERATLSCRASENVGTYISWYQQKPGQAPRLLIYGASNRYTGIPARFSGSGSGTDFTLTISSLEPEDFAVYYCGESYGHLYTFGGGTKVEIKR | ~0.443 nM | 0.00843 nM
9 | TIGIT-G9-LC (bispecific antibody) heavy: not shown light: EIVLTQSPATLSLSPGERATLSCRASENVGTYISWYQQKPGQAPRLLIYGASNRYTGIPARFSGSGSGTDFTLTISSLEPEDFAVYYCGESYGHLYTFGGGTKVEIKRTVAAPSVFIFPPSDEQLKSGTASVVCLLNNFYPREAKVQWKVDNALQSGNSQESVTEQDSKDSTYSLSSTLTLSKADYEKHKVYACEVTHQGLSSPVTKSFNRGECGGGGSGGGSEVQLVESGGGLVQPGGSLRLSCAASGYKYGVYSMGWFRQAPGKGLEGVSAICSGGRTTYSDSVKGRFTISRDNSNQILYLQMNSLRAEDTAVYYCAARPLWTGDCDLSSSWYKTWGQGTLVTVSS | 0.658 nM | –
